Earlier results, collected in paper PMC4443854.

Molecular target: actin filaments (F-actin) (Oryctolagus cuniculus) (UniProt P68135)

Kd: 2.5 µM
Substance: AIP1 (from UniProt O75083)
